B1: mouse monoclonal antibody #56 (antibody, mouse IgG1, V domains shown)
VH: QVQLKESGPGLVAPSQSLSITCTVSGFSLTGYGVNWVRQPPGKGLEWLGMIWADGDTDYNSALKSRLSISKDNSKSQVFLKVNNLQTDDTARYYCARDSYYYGYNFFDVWGAGTTVTVSS
VL: DIQMTQTTSSLSASLGDRVTISCRASQDISNYLNWYQQKPEGTLKLLIYYTSRLHSGVPSRFSGSGSGTDYSLTISSLEQEDIATYFCQQGNTLPRTFGGGTKLEIK
notes: also called Chen 56; antibody secreted by hybridoma A56
B2: human mouse chimeric antibody AB5C1 (antibody, V domains shown)
VH: QVQLKESGPGLVAPSQSLSITCTVSGFSLTGYGVNWVRQPPGKGLEWLGMIWADGDTDYNSALKSRLSISKDNSKSQVFLKVNNLQTDDTARYYCARDSYYYGYNFFDVWGAGTTVTVSS
VL: DIQMTQTTSSLSASLGDRVTISCRASQDISNYLNWYQQKPEGTLKLLIYYTSRLHSGVPSRFSGSGSGTDYSLTISSLEQEDIATYFCQQGNTLPRTFGGGTKLEIK
B3: humanized antibody AB5C6 (antibody, V domains shown)
VH: QVQLKESGPGLVAPSETLSITCTVSGFSLTGYGVNWVRQPPGKGLEWLGMIWADGDTDYNSALKSRLTISKDNSKSQVFLKVNNLQTDDTARYYCARDSYYYGYNFFDVWGAGTTVTVSS
VL: DIQMTQSPSSLSASVGDRVTISCRASQDISNYLNWYQQKPEGTLKLLIYYTSRLHSGVPSRFSGSGSGTDYSLTISSLQQEDIATYFCQQGNTLPRTFGGGTKLEIK
notes: Humanized from #56 by surface remodeling
B4: mouse monoclonal antibody #2 (antibody, mouse IgG1, V domains shown)
VH: QVQLQQSGPELARPGASVKLSCKASGYTFTDYWMQWVKQRPGQGLEWIGTIYPGDGYTRYIQKFKGRATLTADKSSSTAYMQLNSLASEDSAVYYCARRAAYYTMDYWGQGTSVTVSS
VL: DIVMTQSHKFMSTSVGDRVSITCKASQDVNTAVAWYQQKPGQSPKLLIYWASTRHTGVPDRFTGSGSGTDYILTISSVQAEDLALYYCQQHYSSPWTFGGGTKLEIT
notes: also called Chen 2; antibody secreted by hybridoma A2
B5: human mouse chimeric antibody AB5D1 (antibody, V domains shown)
VH: QVQLQQSGPELARPGASVKLSCKASGYTFTDYWMQWVKQRPGQGLEWIGTIYPGDGYTRYIQKFKGRATLTADKSSSTAYMQLNSLASEDSAVYYCARRAAYYTMDYWGQGTSVTVSS
VL: DIVMTQSHKFMSTSVGDRVSITCKASQDVNTAVAWYQQKPGQSPKLLIYWASTRHTGVPDRFTGSGSGTDYILTISSVQAEDLALYYCQQHYSSPWTFGGGTKLEIT
B6: humanized antibody AB5D6 (antibody, V domains shown)
VH: QVQLQQSGPEVAKPGASVKLSCKASGYTFTDYWMQWVKQRPGQGLEWIGTIYPGDGYTRYIQKFKGRATLTADKSTSTAYMELNSLASEDSAVYYCARRAAYYTMDYWGQGTSVTVSS
VL: DIVMTQSHKFMSTSVGDRVTITCKASQDVNTAVAWYQQKPGQSPKLLIYWASTRHTGVPDRFSGSGSGTDYILTISSVQAEDLALYYCQQHYSSPWTFGGGTKLEIT
notes: Humanized from #2 by surface remodeling
B7: humanized antibody AB5C2 (antibody, V domains shown)
VH: QVQLQESGPGLVKPSETLSLTCTVSGFSLTGYGVNWVRQPPGKGLEWLGMIWADGDTDYNSALKSRVTISKDTSKNQFSLKLSSVTAADTARYYCARDSYYYGYNFFDVWGAGTTVTVSS
VL: DIQMTQSPSSLSASVGDRVTITCRASQDISNYLNWYQQKPGKAPKLLIYYTSRLHSGVPSRFSGSGSGTDFTFTISSLQPEDIATYFCQQGNTLPRTFGGGTKVEIK
notes: Humanized from #56 by CDR transplantation
B8: humanized antibody AB5C4 (antibody, V domains shown)
VH: QVQLQESGPGLVKPSETLSLTCTVSGFSLTGYGWGWVRQPPGKGLEWIGSIWADGDTYYNPSLKSRVTISVDTSKNQFSLKLSSVTAADTAVYYCARDSYYYGYNFFDVWGQGTMVTVSS
VL: DIQMTQSPSSLSASVGDRVTITCQASQDISNYLNWYQQKPGKAPKLLIYYTSNLESGVPSRFSGSGSGTDFTFTISSLQPEDIATYYCQQGNTLPRTFGGGTKVEIK
notes: as for B7
B9: humanized antibody AB5C5 (antibody, V domains shown)
VH: QVQLQESGPGLVKPSETLSLTCTVSGFSLTGYGWGWVRQPPGKGLEWLGSIWADGDTYYNPSLKSRVTISVDTSKNQFSLKLSSVTAADTAVYYCARDSYYYGYNFFDVWGQGTMVTVSS
VL: DIQMTQSPSSLSASVGDRVTITCQASQDISNYLNWYQQKPGKAPKLLIYYTSNLESGVPSRFSGSGSGTDFTFTISSLQPEDIATYFCQQGNTLPRTFGGGTKVEIK
notes: as for B7
B10: humanized antibody AB5C3 (antibody, V domains shown)
VH: QVQLQESGPGLVKPSETLSLTCTVSGFSLTGYGWGWIRQPPGKGLEWIGSIWADGDTYYNPSLKSRVTISVDTSKNQFSLKLSSVTAADTAVYYCARDSYYYGYNFFDVWGQGTMVTVSS
VL: DIQMTQSPSSLSASVGDRVTITCQASQDISNYLNWYQQKPGKAPKLLIYYTSNLETGVPSRFSGSGSGTDFTFTISSLQPEDIATYYCQQGNTLPRTFGGGTKVEIK
notes: as for B7
B11: humanized antibody AB5D2 (antibody, V domains shown)
VH: QVQLVQSGAEVKKPGASVKVSCKASGYTFTDYWMQWVKQRPGQGLEWIGTIYPGDGYTRYIQKFKGRVTMTRDTSTSTVYMELSSLRSEDSAVYYCARRAAYYTMDYWGQGTLVTVSS
VL: DIQMTQSPSSLSASVGDRVTITCKASQDVNTAVAWYQQKPGKAPKLLIYWASTRHTGVPDRFTGSGSGTDYTLTISSLQPEDLALYYCQQHYSSPWTFGGGTKVEIT
notes: Humanized from #2 by CDR transplantation
B12: humanized antibody AB5D4 (antibody, V domains shown)
VH: QVQLVQSGAEVKKPGASVKVSCKASGYTFTDYWMHWVKQAPGQGLEWMGIIYPGDGYTSYAQKFQGRVTMTRDTSTSTVYMELSSLRSEDTAVYYCARRAAYYTMDYWGQGTLVTVSS
VL: DIQMTQSPSSLSASVGDRVTITCRASQDVNTALAWYQQKPGKAPKLLLYWASRLETGVPSRFSGSGSGTDYTLTISSLQPEDFATYYCQQHYSSPWTFGGGTKVEIT
notes: as for B11
B13: humanized antibody AB5D3 (antibody, V domains shown)
VH: QVQLVQSGAEVKKPGASVKVSCKASGYTFTDYWMHWVRQAPGQGLEWMGIIYPGDGYTSYAQKFQGRVTMTRDTSTSTVYMELSSLRSEDTAVYYCARRAAYYTMDYWGQGTLVTVSS
VL: DIQMTQSPSSLSASVGDRVTITCRASQDVNTALAWYQQKPGKAPKLLLYWASRLESGVPSRFSGSGSGTDYTLTISSLQPEDFATYYCQQHYSSPWTFGGGTKVEIT
notes: as for B11
B14: humanized antibody AB5D5 (antibody, V domains shown)
VH: QVQLVQSGAEVKKPGASVKVSCKASGYTFTDYWMHWVKQAPGQGLEWMGIIYPGDGYTSYIQKFQGRVTMTRDTSTSTVYMELSSLRSEDTAVYYCARRAAYYTMDYWGQGTLVTVSS
VL: DIQMTQSPSSLSASVGDRVTITCRASQDVNTALAWYQQKPGKAPKLLLYWASRLETGVPSRFSGSGSGTDYTLTISSLQPEDLATYYCQQHYSSPWTFGGGTKVEIT
notes: as for B11

How the values were obtained:
[1] = target: T1, human nerve growth factor (hNGF) (human, UniProt P01138 122-241); assay: cell-based or functional assay
T1 sequence (P01138 122-241 limits assumed): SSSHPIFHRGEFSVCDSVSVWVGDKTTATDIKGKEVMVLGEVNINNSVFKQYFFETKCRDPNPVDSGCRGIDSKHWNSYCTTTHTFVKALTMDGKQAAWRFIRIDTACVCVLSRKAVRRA

human NGF (his tag) [2] = target: T2, human NGF (his tag) (human, UniProt P01138 122-241, limits assumed); assay: BLI (ForteBio Octet), human NGF (his tag) on Ni-NTA sensor
T2 construct: Captured on Ni-NTA sensors in the ForteBio Octet assay; also called hNGF; antigen; not shown: his tag
T2 sequence (P01138 122-241 limits assumed): as above
Description: (§1) The binding affinity constants of purified mouse monoclonal antibody #56 and #2 with antigens were determined by the bio film interference technique (fortebio octet Red & QK system, Pall company). […] After the kinetic fitting curve of affinity analysis, the affinity constant was calculated by analyzing the above data.

human NGF (his tag) [3] = target: T2, human NGF (his tag); assay: BLI (ForteBio Octet), method of example 4
Description: as §1

[4] = target: T1, human nerve growth factor (hNGF); assay: indirect ELISA on coated hNGF (0.2 µg/ml), detection with HRP anti-mouse IgG, OD 450 nm
Description: Indirect ELISA was used to determine the binding titers of purified mouse antibody #2, #56 and #98 to hNGF. Among them, each pore was coated with 100 μl 0.2 μg/ml hNGF (Corning company) and placed at 4° C. for 16-20 h. The PBS buffer in 96 well plate was sucked off, washed with PBST (pH 7.4, PBS containing 0.05% Tween 20) buffer once, then 200 μL/well PBST/1% skimmed milk powder was added, incubated at room temperature for 1 h and sealed. Remove the blocking solution, wash the plate with PBST buffer for 3 times, add PBST/1% skimmed milk powder to dilute to the appropriate concentration of anti-hngf mouse antibody to be tested, 100 μL/well, incubate at room temperature for 1.5 h. Remove the reaction system, wash the plate with PBST three times, and then use the HRP labeled Sheep anti mouse IgG polyclonal antibody (Jackson Laboratory) diluted with PBST/1% skimmed milk powder (dilution ratio 1:5000) at 50 μL/well as the detection antibody, and incubate at room temperature for 1 h. After 3 times of PBST washing, add 100 μL/well TMB and incubate at room temperature for 10-30 min. Add 50 μL/pore 0.2 M sulfuric acid to stop the reaction.

| Binder | IC50 (read off the curve), NGF-dependent TF-1 cell proliferation [1] | Kd (human NGF (his tag) [2]) | koff (human NGF (his tag) [2]) | kon (human NGF (his tag) [2]) | Kd (human NGF (his tag) [3]) | koff (human NGF (his tag) [3]) | kon (human NGF (his tag) [3]) | EC50 (read off the curve) [4] |
| --- | --- | --- | --- | --- | --- | --- | --- | --- |
| B1 | ~0.4 µg/mL | 0.0123 nM | 8.89e-06 s⁻¹ | 723000 M⁻¹ s⁻¹ | – | – | – | – |
| B2 | ~0.9 µg/mL | – | – | – | 0.0299 nM | 5.4e-05 s⁻¹ | 1.81e+06 M⁻¹ s⁻¹ | – |
| B3 | ~0.4 µg/mL | – | – | – | 0.0102 nM | 1.61e-05 s⁻¹ | 1.59e+06 M⁻¹ s⁻¹ | – |
| B4 | – | 0.0159 nM | 2.92e-05 s⁻¹ | 1.83e+06 M⁻¹ s⁻¹ | – | – | – | ~0.007 µg/mL |
| B5 | – | – | – | – | 0.0106 nM | 1.55e-05 s⁻¹ | 1.46e+06 M⁻¹ s⁻¹ | – |
| B6 | – | – | – | – | 0.0157 nM | 2.22e-05 s⁻¹ | 1.41e+06 M⁻¹ s⁻¹ | – |
| B7 | ~0.4 µg/mL | – | – | – | 0.0013 nM | 2.16e-06 s⁻¹ | 1.66e+06 M⁻¹ s⁻¹ | – |
| B8 | – | – | – | – | 0.0153 nM | 2.23e-05 s⁻¹ | 1.46e+06 M⁻¹ s⁻¹ | – |
| B9 | – | – | – | – | 0.0089 nM | 1.59e-05 s⁻¹ | 1.78e+06 M⁻¹ s⁻¹ | – |
| B10 | – | – | – | – | 0.00755 nM | 9.87e-06 s⁻¹ | 1.31e+06 M⁻¹ s⁻¹ | – |
| B11 | – | – | – | – | 0.00633 nM | 7.94e-06 s⁻¹ | 1.25e+06 M⁻¹ s⁻¹ | – |
| B12 | – | – | – | – | 0.0182 nM | 3.25e-05 s⁻¹ | 1.78e+06 M⁻¹ s⁻¹ | – |
| B13 | – | – | – | – | 0.0129 nM | 1.92e-05 s⁻¹ | 1.49e+06 M⁻¹ s⁻¹ | – |
| B14 | – | – | – | – | 0.0154 nM | 1.89e-05 s⁻¹ | 1.23e+06 M⁻¹ s⁻¹ | – |

Reference: US20210395354A1 (AMPSOURCE BIOPHARMA SHANGHAI, published 2021)
